Assays:
[1] = molecular target: human transglutaminase type 2 (TG2) (human) (UniProt P21980)
[2] = molecular target: cynomolgus monkey TG2 (cynomolgus monkey)
[3] = molecular target: human transglutaminase type 2 (TG2) (human) (UniProt P21980); experiment: ELISA on immobilised human TG2; r2 0.9991; EC50 95% confidence range 0.3291 to 0.4396 [panel A]
[4] = molecular target: human transglutaminase type 2 (TG2) (human) (UniProt P21980); experiment: ELISA on immobilised human TG2; r2 0.9588; EC50 95% confidence range 0.06801 to 0.2396 [panel A]
[5] = molecular target: cynomolgus monkey TG2 (cynomolgus monkey); experiment: ELISA on immobilised cynomolgus monkey TG2; r2 0.9994; EC50 95% confidence range 0.3762 to 0.4603 [panel A]
[6] = molecular target: cynomolgus monkey TG2 (cynomolgus monkey); experiment: ELISA on immobilised cynomolgus monkey TG2; r2 0.9586; EC50 95% confidence range 0.09303 to 0.4223 [panel A]

cynomolgus monkey TG2 (cynomolgus monkey), sequence (chain, as listed by the source): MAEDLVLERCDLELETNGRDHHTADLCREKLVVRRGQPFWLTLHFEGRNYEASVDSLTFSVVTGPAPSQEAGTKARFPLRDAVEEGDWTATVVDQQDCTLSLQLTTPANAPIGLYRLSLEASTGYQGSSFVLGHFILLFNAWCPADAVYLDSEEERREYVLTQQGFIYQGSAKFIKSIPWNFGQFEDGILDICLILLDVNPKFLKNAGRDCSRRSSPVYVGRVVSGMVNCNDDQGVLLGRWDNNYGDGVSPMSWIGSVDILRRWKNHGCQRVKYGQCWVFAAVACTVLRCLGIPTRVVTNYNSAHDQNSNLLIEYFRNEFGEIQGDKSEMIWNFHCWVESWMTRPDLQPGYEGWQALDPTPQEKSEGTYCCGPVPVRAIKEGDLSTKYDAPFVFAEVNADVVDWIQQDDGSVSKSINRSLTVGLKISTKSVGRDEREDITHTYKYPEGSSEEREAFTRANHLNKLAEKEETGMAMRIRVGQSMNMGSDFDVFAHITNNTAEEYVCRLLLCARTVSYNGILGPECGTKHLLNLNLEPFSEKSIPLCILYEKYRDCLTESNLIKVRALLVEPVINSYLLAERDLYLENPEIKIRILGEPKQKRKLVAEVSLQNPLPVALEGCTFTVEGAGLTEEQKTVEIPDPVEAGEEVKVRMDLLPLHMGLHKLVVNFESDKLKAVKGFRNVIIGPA
human transglutaminase type 2 (TG2) (human), sequence (P21980 whole entry): as the sequence (chain, as listed by the source) above, with D4E, R157Q, S177N, S413H, T421I, H528Y, I542V counted along it

IC50 of enzymatic inhibition, dansylated lysine incorporation into N,N-dimethylated casein [continued), panel F] [1]: > 100000 pM | IC50 of enzymatic inhibition, dansylated lysine incorporation into N,N-dimethylated casein [panel B] [2]: > 100000 pM | EC50 [3]: 380 pM | EC50 [4]: 128 pM | EC50 [5]: 416 pM | EC50 [6]: 198 pM
Substance: CUB7402 commercial anti-TG2 antibody

— patent US10005846
